Measured values reported in US20120058906A1 (published 2012).
Where a chain is given by its changes, count along the chain named.

Columns and labels:
[1] = target: T1, rHuman Erythropoietin R/Fc Chimera, CF (R&D Systems Cat#963-ER) (human, UniProt P19235 25-250); assay: ECL (MSD Multi-Spot) binding assay, antigen spotted on plate; Fab 154 nM; blank spot 447
T1 construct: Bought Fc chimera; also called EPO R/Fc; Epo R; Fc part of the bought chimera not given
T1 sequence: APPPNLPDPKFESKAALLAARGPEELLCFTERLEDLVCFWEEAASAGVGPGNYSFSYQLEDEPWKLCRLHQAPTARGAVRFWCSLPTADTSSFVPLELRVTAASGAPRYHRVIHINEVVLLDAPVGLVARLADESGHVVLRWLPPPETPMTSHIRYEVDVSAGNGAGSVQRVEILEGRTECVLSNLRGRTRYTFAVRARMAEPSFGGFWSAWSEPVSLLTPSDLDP

[2] = target: T2, rHuman Notch-1/Fc Chimera, CF (R&D Systems Cat#3647-TK) (human, UniProt P46531 19-526); assay: as above
T2 construct: Bought Fc chimera; Fc part of the bought chimera not given

[3] = target: T3, rHuman EGF R/Fc Chimera, CF (R&D Systems Cat#344-ER) (human, UniProt P00533 25-645); assay: as above
T3 construct: Bought Fc chimera; also called epidermal growth factor receptor; Fc part of the bought chimera not given

[4] = target: T4, Recombinant Human DLL4 (R&D Systems Cat#1506-D4/CF) (human, UniProt Q9NR61 27-524); assay: as above
T4 construct: Bought recombinant protein; also called delta-like protein 4; rHuman DLL4

[5] = target: T5, rHuman CD44/Fc Chimera, CF (R&D Systems Cat#3660-CD) (human, UniProt P16070 21-220); assay: as above
T5 construct: Bought Fc chimera; Fc part of the bought chimera not given

[6] = target: T6, rHuman IGF-1 sR (IGF-1 sR), CF (R&D Systems Cat#391-GR) (human, UniProt P08069 31-932); assay: as above
T6 construct: Bought soluble receptor; also called insulin-like growth factor-1 soluble receptor; IGF-R1

[7] = target: T7, rHuman ErbB2/Fc Chimera, CF (R&D Systems Cat#1129-ER) (human, UniProt P04626 23-652); assay: as above
T7 construct: Bought Fc chimera; also called HER2/neu; human epidermal growth factor 2 receptor; Fc part of the bought chimera not given

[8] = target: T8, rHuman P-Cadherin/Fc Chimera, CF (R&D Systems Cat#861-PC) (human, UniProt P22223 108-654); assay: MSD ECL titration, Fab 0.6 nM, blank 226
T8 construct: Bought Fc chimera; Fc part of the bought chimera not given

[9] = target: T9, rHuman HGF R/c-MET/Fc Chimera, CF (R&D Systems Cat#358-MT/CF) (human, UniProt P08581 25-932); assay: MSD ECL titration, Fab 0.6 nM, blank 226
T9 construct: Bought Fc chimera; also called HGF R/Fc; Fc part of the bought chimera not given

[10] = target: T10, rHuman CD44/Fc Chimera, CF (R&D Systems Cat#3660-CD) (human, UniProt P16070 21-220); assay: MSD ECL titration, Fab 0.6 nM, blank 226
T10 construct: Bought Fc chimera; Fc part of the bought chimera not given

[11] = target: T11, rHuman Notch-1/Fc Chimera, CF (R&D Systems Cat#3647-TK) (human, UniProt P46531 19-526); assay: MSD ECL titration, Fab 0.6 nM, blank 226
T11 construct: Bought Fc chimera; Fc part of the bought chimera not given

[12] = target: T12, rHuman IGF-1 sR (insulin-like growth factor-1 soluble receptor), CF (R&D Systems Cat#391-GR) (human, UniProt P08069 31-932); assay: MSD ECL titration, Fab 0.6 nM, blank 226
T12 construct: Bought soluble receptor; also called IGF-R1

[13] = target: T13, rHuman ErbB2/Fc Chimera, CF (R&D Systems Cat#1129-ER) (human, UniProt P04626 23-652); assay: MSD ECL titration, Fab 0.6 nM, blank 226
T13 construct: Bought Fc chimera; also called HER2/neu; Fc part of the bought chimera not given

[14] = target: T14, rHuman EGF R/Fc Chimera, CF (R&D Systems Cat#344-ER) (human, UniProt P00533 25-645); assay: MSD ECL titration, Fab 0.6 nM, blank 226
T14 construct: Bought Fc chimera; Fc part of the bought chimera not given

[15] = target: T15, rHuman Erythropoietin R/Fc Chimera, CF (R&D Systems Cat#963-ER) (human, UniProt P19235 25-250); assay: MSD ECL titration, Fab 0.6 nM, blank 226
T15 construct: Bought Fc chimera; also called EPO R/Fc; EPOR; Fc part of the bought chimera not given
T15 sequence: T1 sequence

[16] = target: T16, Recombinant Human DLL4 (R&D Systems Cat#1506-D4/CF) (human, UniProt Q9NR61 27-524); assay: MSD ECL titration, Fab 0.6 nM, blank 226
T16 construct: Bought recombinant protein; also called rHuman DLL4; delta-like protein 4

[17] = target: T17, rHuman EGF R/Fc Chimera, CF (R&D Systems Cat#344-ER) (human, UniProt P00533 25-645); assay: ECL (MSD Multi-Spot) binding, antigen spotted on plate; Fab 50 nM
T17 construct: Bought Fc chimera; also called epidermal growth factor receptor; Fc part of the bought chimera not given

[18] = target: T18, rHuman Erythropoietin R/Fc Chimera, CF (R&D Systems Cat#963-ER) (human, UniProt P19235 25-250); assay: as above
T18 construct: Bought Fc chimera; also called EPO R/Fc; erythropoietin receptor; Fc part of the bought chimera not given
T18 sequence: T1 sequence

[19] = target: T19, rHuman IGF-1 sR, CF (R&D Systems Cat#391-GR) (human, UniProt P08069 31-932); assay: as above
T19 construct: Bought soluble receptor; also called insulin-like growth factor-1 soluble receptor; IGF-R1
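Further: blank spot per well as comparator with Hit at signal to blank ratio of 4 or more.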

B1: Fab VH5-51_IGHD5-18*01>3_IGHJ4*01 & V3-4_IGLJ1*01 (Fab, V domains shown)
VH: EVQLVQSGAEVKKPGESLKISCKGSGYSFTSYWIGWVRQMPGKGLEWMGIIYPGDSDTRYSPSFQGQVTISADKSISTAYLQWSSLKASDTAMYYCARRGYSYGYDYFDYWGQGTLVTVSS
VL: QTVVTQEPSFSVSPGGTVTLTCGLSSGSVSTSYYPSWYQQTPGQAPRTLIYSTNTRSSGVPDRFSGSILGNKAALTITGAQADDESDYYCVLYMGSGISYVFGTGTKVTVL
notes: Tested as a Fab made in E. coli; also called IGHV5-51*03
B1 showed an ECL signal [1] of 1200, an ECL signal [2] of 929 and an ECL signal [3] of 1400. The ECL signal [4] was 40400, the ECL signal [5] was 960 and the ECL signal [6] was 1400. The ECL signal [7] was 1590.

B2: Fab VH1-46_IGHD6-6*01_IGHJ1*01 & L6_IGKJ1*01 (Fab, V domains shown)
VH: QVQLVQSGAEVKKPGASVKVSCKASGYTFTSYYMHWVRQAPGQGLEWMGIINPSGGSTSYAQKFQGRVTMTRDTSTSTVYMELSSLRSEDTAVYYCAREEYSSSSAEYFQHWGQGTLVTVSS
VL: not shown
notes: Expressed in E. coli as Fab: heavy chain with CH1 plus Flag and His tags from Plasmid A, kappa light chain constant region from Plasmid C; also called Fab No. 1
B2 gave an ECL signal [8] of 321, an ECL signal [9] of 256 and an ECL signal [10] of 238. For the same binder, the ECL signal [11] was 337, the ECL signal [12] was 313 and the ECL signal [13] was 215. The ECL signal [14] was 309, the ECL signal [15] was 337 and the ECL signal [16] was 508.

B3: Fab VH1-46_IGHD6-6*01_IGHJ1*01_S102A_S103P_S104F_H111Y & L6_IGKJ1*01 (Fab, V domains shown)
VH: B2 VH with S102A, S103P, S104F, H111Y
VL: not shown
notes: Fab made in E. coli; The heavy chain also carries the CH1 with Flag and His tags of Plasmid A, and the light chain the kappa constant region of Plasmid C
Binder B3 has an ECL signal [17] of 523, an ECL signal [18] of 631 and an ECL signal [19] of 460.
